Molecular target: NS1 protein expressed in yeast cells (UniProt P14340)

Question: For “NS1 protein expressed in yeast cells (from UniProt P14340 776-1127) (natural protein)”, which stoichiometry N is on record?
Answer: 2

From paper PMC3597719
